In the Human Domainome abundance scans (Beltran et al. 2025):
± gives the uncertainty stated by the source.

B1: Cyclin-F, residues 28 to 80; numbered along this chain, P41002 (parent)
chain: RNLTILSLPEDVLFHILKWLSVEDILAVRAVHSQLKDLVDNHASVWACASFQE

Variants of: B1
Assay: abundance fitness (aPCA) (normalised: wild type 0, dead -1); higher = more abundant; growth selection in yeast, the domain comes from the species named
Conditions: Homo sapiens

Variant | abundance fitness
W46I | -0.294 ± 0.13
W46A | -0.283 ± 0.1
W46V | -0.415 ± 0.1
W46T | -0.3 ± 0.1
W46H | -0.38 ± 0.17
W46E | -0.016 ± 0.13
W46S | -0.314 ± 0.088
W46F | -0.364 ± 0.15
W46Q | -0.136 ± 0.15
W46L | -0.114 ± 0.087
S44W | -0.485 ± 0.14
S44Q | -0.306 ± 0.21
S44H | 0.222 ± 0.32
S44Y | -0.428 ± 0.15
S44G | 0.05 ± 0.084
S44V | -0.535 ± 0.096
S44K | -0.104 ± 0.11
S44L | -0.499 ± 0.1
S44M | -0.223 ± 0.12
S44T | -0.307 ± 0.12
S44N | 0.11 ± 0.24
S44F | -0.278 ± 0.12
S44R | -0.281 ± 0.079
S44D | 0.212 ± 0.13

Variant | abundance fitness
S44A | -0.119 ± 0.099
D40M | -0.884 ± 0.28
D40T | -0.444 ± 0.15
D40Y | -0.862 ± 0.22
D40R | -0.749 ± 0.11
D40S | -0.432 ± 0.12
D40V | -0.606 ± 0.095
D40N | -0.664 ± 0.15
D40W | -1.03 ± 0.2
D40Q | -0.49 ± 0.2
D40P | -0.791 ± 0.2
S50Q | 0.105 ± 0.12
S50F | -0.668 ± 0.11
S50E | -0.114 ± 0.16
S50Y | -0.369 ± 0.2
S50H | -0.319 ± 0.16
S50T | -0.166 ± 0.13
S50P | -0.1 ± 0.12
S50L | -0.485 ± 0.099
S50V | -0.621 ± 0.14
S50K | -0.03 ± 0.13
S50M | -0.483 ± 0.17
S50W | -0.434 ± 0.098
S50N | -0.394 ± 0.27

Variant | abundance fitness
S50D | 0.029 ± 0.14
A49D | 0.248 ± 0.12
A49E | -0.125 ± 0.14
A49C | -0.185 ± 0.12
A49L | -0.395 ± 0.1
A49R | 0.037 ± 0.08
A49V | -0.609 ± 0.11
A49Y | -0.341 ± 0.25
A49Q | 0.088 ± 0.15
A49W | -0.443 ± 0.12
A49K | 0.17 ± 0.13
A49S | 0.092 ± 0.078
A49F | -0.663 ± 0.24
A49P | 0.126 ± 0.13
A49I | -0.409 ± 0.23
A49H | -0.091 ± 0.16
A49M | -0.51 ± 0.18
A49G | 0.089 ± 0.073
Q52H | -0.108 ± 0.33
Q52E | -0.39 ± 0.22
Q52L | -0.07 ± 0.097
Q52V | -0.123 ± 0.1
Q52P | -0.377 ± 0.16
Q52D | -0.296 ± 0.27

Variant | abundance fitness
Q52T | -0.135 ± 0.11
Q52F | -0.241 ± 0.22
Q52W | -0.19 ± 0.18
Q52N | -0.286 ± 0.19
Q52K | 0.011 ± 0.17
Q52C | -0.213 ± 0.2
Q52R | -0.02 ± 0.1
Q52M | -0.256 ± 0.29
Q52Y | -0.382 ± 0.24
Q52I | -0.109 ± 0.48
H42N | -0.35 ± 0.19
H42I | -0.075 ± 0.25
H42Y | -0.365 ± 0.11
H42S | -0.347 ± 0.098
H42M | -0.64 ± 0.19
H42W | -0.45 ± 0.13
H42V | -0.716 ± 0.095
H42T | -0.487 ± 0.13
H42F | -0.418 ± 0.13
H42D | -0.746 ± 0.29
H42L | -0.546 ± 0.11
H42E | -0.8 ± 0.14
H42P | -0.526 ± 0.15
H42A | -0.442 ± 0.087

Variant | abundance fitness
H42C | -0.237 ± 0.15
H42G | -0.467 ± 0.094
H42K | -0.068 ± 0.12
H42R | -0.175 ± 0.085
V45Y | 0.154 ± 0.17
V45L | -0.076 ± 0.088
V45D | 0.289 ± 0.15
V45G | -0.149 ± 0.095
V45W | 0.1 ± 0.14
V45M | -0.082 ± 0.21
V45R | -0.031 ± 0.085
V45C | -0.027 ± 0.11
V45S | 0.149 ± 0.093
V45H | 0.137 ± 0.13
V45E | 0.362 ± 0.11
V45T | 0.131 ± 0.13
V45P | -0.061 ± 0.11
V45I | -0.026 ± 0.13
V45F | -0.016 ± 0.11
V45K | 0.181 ± 0.12
V45N | 0.031 ± 0.14
F51G | -0.158 ± 0.079
F51S | -0.194 ± 0.11
F51T | -0.014 ± 0.11

Variant | abundance fitness
F51M | 0.085 ± 0.11
F51A | -0.138 ± 0.091
F51E | -0.38 ± 0.14
F51I | -0.111 ± 0.17
F51K | -0.202 ± 0.18
F51P | -0.184 ± 0.15
F51V | -0.034 ± 0.083
F51L | 0.092 ± 0.096
F51H | -0.123 ± 0.31
F51W | -0.279 ± 0.13
F51Y | -0.215 ± 0.24
F51R | -0.187 ± 0.09
A47E | -0.365 ± 0.14
A47R | -0.14 ± 0.094
A47F | 0.386 ± 0.18
A47C | -0.218 ± 0.13
A47S | -0.114 ± 0.13
A47L | -0.235 ± 0.096
A47D | -0.062 ± 0.15
A47H | -0.29 ± 0.26
A47V | -0.513 ± 0.12
A47N | -0.088 ± 0.21
A47M | -0.095 ± 0.13
A47W | -0.374 ± 0.12

Variant | abundance fitness
A47Y | -0.458 ± 0.23
A47K | -0.181 ± 0.16
A47T | -0.43 ± 0.15
A47G | 0.193 ± 0.08
A47I | -0.178 ± 0.23
C48G | 0.179 ± 0.088
C48W | -0.312 ± 0.11
C48S | 0.14 ± 0.095
C48H | -0.302 ± 0.15
C48T | -0.066 ± 0.12
C48P | 0.42 ± 0.12
C48L | 0.075 ± 0.085
C48I | -0.306 ± 0.18
C48N | 0.184 ± 0.17
C48F | -0.364 ± 0.13
C48A | -0.232 ± 0.11
C48M | -0.238 ± 0.13
C48Y | -0.367 ± 0.12
C48K | -0.307 ± 0.16
C48V | -0.406 ± 0.093
C48D | -0.14 ± 0.2
C48R | -0.321 ± 0.1
C48Q | -0.246 ± 0.17
